The supplement of paper PMC7877785
± gives the uncertainty stated by the source.

Experiment: self-splicing fitness, log relative to wild type (ln ratio); higher = more splicing; Tetrahymena group I intron in knt gene, E. coli kanamycin selection, DiMSum; sequences stand for … in CUCUCU…GGAGGGAAAAGUUAUCAGGCAUGCACCUGGUAGCUAGUCUUUAAACCAAUAGAUUGCAUCGGUUUAAAAGGCAAGACCGUCAAAUUGCGGGAAAGGGGUCAACAGCCGUUCAGUACCAAGUCUCAGGGGAAACUUUGAGAUGGCCUUGCAAAGGGUAUGGUAAUAAGCUGACGGACAUGGUCCUAACCACGCAGCCAAGUCCUAAGUCAACAGAUCUUCUGUUGAUAUGGAUGCAGUUCACAGACUAAAUGUCGGUCGGGGAAGAUGUAUUCUUCUCAUAAGAUAUAGUCGGACCUCUCCUUAAUGGGAGCUAGCGGAUGAAGUGAUGCAACACUGGAGCCGCUGGGAACUAAUUUGUAUGCGAAAGUAUAUUGAUUAGUUUUGGAGUACUCGUGGUCG
In short: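 Library with all eight P1ex-region intron nucleotides randomised, intron inside the knt kanamycin-resistance gene on pET-22b(+), in E. coli BL21(DE3). Cells grew overnight at 37°C or 30°C on LB agar with or without 25 μg/mL kanamycin (plus 100 μg/mL carbenicillin, 50 μM IPTG, 0.2% rhamnose), in six replicate transformations. Pooled colonies were amplicon-sequenced on Illumina HiSeq 2500. DiMSum fitness is the error-weighted combination of wild-type-normalised replicate fold changes, kanamycin versus none.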

| Sequence | self-splicing fitness (ln) (30 °C) | self-splicing fitness (ln) (37 °C) |
| --- | --- | --- |
| CACAAGCAAUAUUACGUUUC | -3.53 ± 0.19 | -1.8 ± 0.17 |
| CACCAGCAAUAUUACGAACC | -3.66 ± 0.28 | -0.707 ± 0.25 |
| CACCAGCAAUAUUACGAAGU | -3.79 ± 0.16 | -1.46 ± 0.11 |
| CACCAGCAAUAUUACGAGGA | -2.74 ± 0.14 | -1.91 ± 0.13 |
| CACCAGCAAUAUUACGAUUG | -0.914 ± 0.046 | -0.088 ± 0.072 |
| CACCAGCAAUAUUACGCAGG | -3.09 ± 0.1 | -1.64 ± 0.1 |
| CACCAGCAAUAUUACGCCAA | -2.95 ± 0.28 | -3.23 ± 0.3 |
| CACCAGCAAUAUUACGCCCC | -3.28 ± 0.38 | – |
| CACCAGCAAUAUUACGCCUC | -3.14 ± 0.23 | -1.9 ± 0.2 |
| CACCAGCAAUAUUACGCGCC | -2.68 ± 0.17 | -2.4 ± 0.2 |
| CACCAGCAAUAUUACGCUUU | -3.8 ± 0.14 | -1.94 ± 0.093 |
| CACCAGCAAUAUUACGGACC | -2.62 ± 0.21 | -1.72 ± 0.21 |
| CACCAGCAAUAUUACGGCAA | -1.68 ± 0.099 | -0.956 ± 0.1 |
| CACCAGCAAUAUUACGGCGG | -0.993 ± 0.065 | -0.567 ± 0.079 |
| CACCAGCAAUAUUACGGGAA | -1.05 ± 0.059 | -1.07 ± 0.075 |
| CACCAGCAAUAUUACGUAAA | -3.49 ± 0.15 | -1.6 ± 0.11 |
| CACCAGCAAUAUUACGUAGA | -1.46 ± 0.052 | -0.916 ± 0.064 |
| CACCAGCAAUAUUACGUCGG | -1.36 ± 0.059 | -0.518 ± 0.072 |
| CACCAGCAAUAUUACGUCUA | -2.84 ± 0.091 | -1.79 ± 0.091 |
| CACCAGCAAUAUUACGUCUG | -1.55 ± 0.056 | -0.504 ± 0.07 |
| CACCAGCAAUAUUACGUGAG | -3.8 ± 0.16 | -2.26 ± 0.14 |

| Sequence | self-splicing fitness (ln) (30 °C) | self-splicing fitness (ln) (37 °C) |
| --- | --- | --- |
| CACCAGCAAUAUUACGUGGA | -3.55 ± 0.12 | -2.12 ± 0.09 |
| CACGAGCAAUAUUACGAACG | -0.211 ± 0.12 | 0.033 ± 0.14 |
| CACGAGCAAUAUUACGAGUC | – | -1.63 ± 0.29 |
| CACGAGCAAUAUUACGAUCG | -1.14 ± 0.077 | -0.291 ± 0.083 |
| CACGAGCAAUAUUACGCCCA | -1.81 ± 0.4 | -1.72 ± 0.28 |
| CACGAGCAAUAUUACGCCGU | -3 ± 0.21 | -2.26 ± 0.18 |
| CACGAGCAAUAUUACGCGAU | -3.23 ± 0.21 | -2.51 ± 0.41 |
| CACGAGCAAUAUUACGCGCU | -4.22 ± 0.21 | -2.01 ± 0.19 |
| CACGAGCAAUAUUACGCUAU | -2.42 ± 0.21 | -2.56 ± 0.28 |
| CACGAGCAAUAUUACGCUGA | -3.57 ± 0.37 | -2.02 ± 0.3 |
| CACGAGCAAUAUUACGCUGG | -3.66 ± 0.16 | -2.32 ± 0.16 |
| CACGAGCAAUAUUACGCUUU | -3.71 ± 0.22 | -2.89 ± 0.2 |
| CACGAGCAAUAUUACGGGCG | -0.98 ± 0.11 | -1.14 ± 0.15 |
| CACGAGCAAUAUUACGGGCU | -4.17 ± 0.22 | -3.5 ± 0.46 |
| CACGAGCAAUAUUACGGUCA | -4.22 ± 0.39 | -1.54 ± 0.16 |
| CACGAGCAAUAUUACGUAGC | -2.94 ± 0.24 | -3.31 ± 0.3 |
| CACGAGCAAUAUUACGUAUC | -2.94 ± 0.38 | -2.81 ± 0.36 |
| CACGAGCAAUAUUACGUAUU | -4.05 ± 0.17 | -2.48 ± 0.13 |
| CACGAGCAAUAUUACGUCAC | -3.41 ± 0.2 | -3.18 ± 0.37 |
| CACGAGCAAUAUUACGUGGA | -3.08 ± 0.17 | -2.2 ± 0.17 |
| CACGAGCAAUAUUACGUGGC | -4.09 ± 0.37 | -2.13 ± 0.21 |
